From patent US9260507B2, “Peptide promoting cell adhesion and migration” (Symatese, priority 2009, dated 2016)

What was measured:
[1] = system: normal human keratinocytes; test: NHK wound closure in a confluent keratinocyte layer (time-lapse videomicroscopy); format: cell-based; settings: LG4/5 protein 10 μg/ml, peptide 20 μg/ml
Procedure: NHKs were seeded in 24-well plates and grown until confluence. The medium was removed and a wound was made in the cell layer using a pipette tip. After rinsing with PBS, the areas were incubated with KBM-2 culture medium at 37° C. in the absence or presence of LG4/5 protein (10 μg/ml) or the peptide KKLRIKSKEK (SEQ ID NO: 1) (20 μg/ml). The behaviour of cells around the wound was then immediately followed by time-lapse videomicroscopy with an image recorded every hour for 48 hours in a moist chamber containing 5% CO2. (A) Images recorded at the beginning of the experiment, at 24 h and 48 h show the total area of the wound covered by cells during the experiment and under each condition (the black lines represent the edges of the wound at the start of recording). Bar, […]. (B) The wounded areas (without cells) were measured at the start, at 24 h (grey bars) and 48 h (black bars) using the Adobe Photoshop CS3 Extended program (version 10.0) in the different conditions. The rate of closure of each wound was expressed as a percentage of the initial wound. […]
Videomicroscopy experiments were performed with a Zeiss Axiovert 100M microscope fitted with a CCD camera (1 image every 10 minutes or every hour). In the experiments of FIG. 11, we analysed the movements of 100 cells using Metaview software (Roper Scientific, Princeton Instruments, Evry, France).

normal human fibroblasts = test: Cell adhesion test (crystal violet colorimetric), normal human fibroblasts; format: cell-based; settings: 5 μg peptide or 1 μg LG4/5 protein immobilised, FIG. 14B
Procedure: (A) Showing the binding of syndecan-1 to the peptide KKLRIKSKEK (SEQ ID NO: 1). A lysate of normal human fibroblasts and a lysate of normal human keratinocytes were prepared as described in the Materials and Methods section and 2 mg of each lysate were incubated with neutravidin beads not coated or coated with the biotinylated peptide KKLRIKSKEK (SEQ ID NO: 1). A positive control was performed with the keratinocyte lysate to compare the size and quantity of syndecan-1 in the 2 cell types. After washing, the material bound to the beads was digested with a mixture of heparitinase I and chondroitinase ABC to release the protein part of the syndecan-1 from the glycosaminoglycans. The samples were then analysed by SDS PAGE electrophoresis in an 8% acrylamide gel under non-reducing conditions and by immunoblotting with polyclonal anti-syndecan antibody H174. The position of molecular weight markers is shown on the left. (B, C) Cell adhesion of normal human fibroblasts to the peptide KKLRIKSKEK (SEQ ID NO: 1) and to the LG4/5 protein. In one case (B), 5 μg of peptide KKLRIKSKEK (SEQ ID NO: 1) and 1 μg of protein LG4/5 were immobilised on a 96-well plate and in the other (C), the peptide KKLRIKSKEK (SEQ ID NO: 1) was immobilised at the concentrations indicated in the abscissa. […] After washing, the adherent cells were fixed and cell adhesion was measured as described in the methodology section. […]

HT1080 cells = test: Inhibition of cell adhesion by competition (HT1080 cells on LG4/5 and LN332 substrates); format: cell-based, Human; settings: competitor in solution: peptide 20 μg/ml, LG4/5 protein 10 μg/ml, anti-LG4/5 antibody 10 μg/ml applied to substrate
Procedure: The LG4/5 (white bars) and LN332 (grey bars) proteins (1 μg/well) were adsorbed in 96-well plates. (A) Effect of the polyclonal anti-LG4/5 antibody on cell adhesion to the LG4/5 and LN332 protein. After saturating the wells, a solution of anti-LG4/5 antibody (10 μg/ml) was applied for one hour before performing the adhesion test with HT1080 cells (6·10^4 cells/well). (B, C) Effect of the LG4/5 protein and the peptide KKLRIKSKEK (SEQ ID NO: 1) in solution on syndecan-1 dependent adhesion to the LG4/5 fragment. The HT1080 cells were detached from the dishes and put into the wells (6·10^4 cells/well) as they were or in the presence of the LG4/5 protein (10 μg/ml) or the peptide KKLRIKSKEK (SEQ ID NO: 1) (20 μg/ml) as indicated on the graph. (A, B, C) The plates were incubated at 37° C. for 1 hour. After washing, the adherent cells were fixed and cell adhesion was measured as described in the methodology section. Cell adhesion in the presence of antibodies or competitor proteins was shown as a percentage of the cell adhesion obtained on the same substrate without competitor.
96-well plates were coated with the amounts indicated of peptide KKLRIKSKEK (SEQ ID NO: 1) or laminin 332 by adsorption at +4° C. for 16 to 18 hours. As before, the wells were saturated with a solution of 1% PBS-BSA for one hour. […]

[2] = system: normal human keratinocytes; test: Cell viability test (XTT); settings: 100 to 1 μg/ml, medium renewed every two days (repeated twice)
Procedure: NHKs were seeded in 96-well plates at 10^4 cells per well. After 24 hours, the culture media were removed and replaced with KBM-2 medium containing the concentrations of peptide [sequence] (SEQ ID NO: 1) (upper curve) or LG4/5 protein (lower curve) shown. After 48 h of contact at 37° C. the media were removed and this step was repeated twice. After 48 h of contact at 37° C. the media were replaced by XTT reagent. The plates were then placed in an incubator at 37° C. and the absorption was read after 6 hours. Controls with neither peptide nor protein were made on the same plate.
The effect of the peptide on the cell viability of the normal human keratinocytes was analysed using a colorimetric assay (XTT Cell Proliferation Kit, Roche Diagnostics, Meylan, France). A control with the LG4/5 protein was carried out in parallel. The chemical reaction of the test is based on the production of NADPH in living cells reducing yellow tetrazolium XTT salts to orange formazan salts. Absorption at 490 nm is measured using an ELISA plate reader. […] In this case, cell viability was calculated from the formula: % viability=(Abs. cells with peptide/Abs. control cells)×100.

B1: LG4/5 protein: purified recombinant LG4/5 domain of the alpha3 chain of pre-LN332 (laminin 332) (protein)
chain: DTPVASPRSVKVWQDACSPLPKTQANHGALQFGDIPTSHLLFKLPQELLKPRSQFAVDMQTTSSRGLVFHTGTKNSFMALYLSKGRLVFALGTDGKKLRIKSKEKCNDGKWHTVVFGHDGEKGRLVVDGLRAREGSLPGNSTISIRAPVYLGSPPSGKPKSLPTNSFVGCLKNFQLDSKPLYTPSSSFGVSSCLGGPLEKGIYFSEEGGHVVLAHSVLLGPEFKLVFSIRPRSLTGILIHIGSQPGKHLCVYLEAGKVTASMDSGAGGTSTSVTPKQSLCDGQWHSVAVTIKQHILHLELDTDSSYTAGQIPFPPASTQEPLHLGGAPANLTTLRIPVWKSFFGCLRNIHVNHIPVPVTEALEVQGPVSLNGCPDQ
In the case of B1, the “Area of the wound covered by cells (wound closure)” value ([1]; 24 h) is reported as 65%, the “Area of the wound covered by cells (wound closure)” value ([1]; 48 h) is reported as 91% and the “Adhesion of human dermal fibroblasts to the immobilised substrate” value (normal human fibroblasts) is reported as “adhere”. The “Effect on HT1080 cell adhesion to the immobilised LG4/5 fragment” value (HT1080 cells; LG4/5 substrate 1 μg/well) was “blocked adhesion to the immobilised LG4/5 fragment”, the “Effect on HT1080 cell adhesion to LN332” value (HT1080 cells; LN332 substrate 1 μg/well) was “without affecting adhesion to LN332” and the “Cytotoxic effect on epidermal keratinocytes (percentage of viable cells vs controls)” value [2] was “neither peptide […] (SEQ ID NO: 1) nor protein LG4/5 has any long-term cytotoxic effect”.
